From doi:10.1101/2023.02.25.529910 (bioRxiv, 2023)

Tests used:
crystal structure = biological target: the molecule itself; experiment: crystal structure
SEC = biological target: the molecule itself; experiment: SEC

Protein	stoichiometry N (crystal structure)	binding result (SEC)	further results
gpVdL-DEL (bacteriophage P2 gpV residues 97-196 plus an exogenous Leu197, Apex domain deleted) (domain or fragment) ADALHIRFPDGAVIEYEPETSALTVSGIKTASVTASGSVTATVPVVMVKASTRVTLDTPEVVCTNRLITGTLEVQKGGTMRGNIEHTGGELSSNGKVLHTL	–	–	binding result (crystal structure): binds
gpVdL-AA (bacteriophage P2 gpV residues 97-211, H197A/H199A) (domain or fragment) ADALHIRFPDGAVIEYEPETSALTVSGIKTASVTASGSVTATVPVVMVKASTRVTLDTPEVVCTNRLITGTLEVQKGGTMRGNIEHTGGELSSNGKVLHTAKAPGDSGGTTGSPL	3	–	–
gpVdL-FF (bacteriophage P2 gpV residues 97-211, H197F/H199F) (domain or fragment) ADALHIRFPDGAVIEYEPETSALTVSGIKTASVTASGSVTATVPVVMVKASTRVTLDTPEVVCTNRLITGTLEVQKGGTMRGNIEHTGGELSSNGKVLHTFKFPGDSGGTTGSPL	3	–	–
gpV-AA (full-length bacteriophage P2 gpV, H197A/H199A) (natural protein) MNTLANIQELARALRNMIRTGIIVETDLNAGRCRVQTGGMCTDWLQWLTHRAGRSRTWWAPSVGEQVLILAVGGELDTAFVLPGIYSGDNPSPSVSADALHIRFPDGAVIEYEPETSALTVSGIKTASVTASGSVTATVPVVMVKASTRVTLDTPEVVCTNRLITGTLEVQKGGTMRGNIEHTGGELSSNGKVLHTAKAPGDSGGTTGSPL	–	binds	–
gpV-FF (full-length bacteriophage P2 gpV, H197F/H199F) (natural protein) MNTLANIQELARALRNMIRTGIIVETDLNAGRCRVQTGGMCTDWLQWLTHRAGRSRTWWAPSVGEQVLILAVGGELDTAFVLPGIYSGDNPSPSVSADALHIRFPDGAVIEYEPETSALTVSGIKTASVTASGSVTATVPVVMVKASTRVTLDTPEVVCTNRLITGTLEVQKGGTMRGNIEHTGGELSSNGKVLHTFKFPGDSGGTTGSPL	–	binds	–
gpV-DEL (bacteriophage P2 gpV with the Apex domain deleted, ends at Thr196 plus an exogenous Leu197) (domain or fragment) MNTLANIQELARALRNMIRTGIIVETDLNAGRCRVQTGGMCTDWLQWLTHRAGRSRTWWAPSVGEQVLILAVGGELDTAFVLPGIYSGDNPSPSVSADALHIRFPDGAVIEYEPETSALTVSGIKTASVTASGSVTATVPVVMVKASTRVTLDTPEVVCTNRLITGTLEVQKGGTMRGNIEHTGGELSSNGKVLHTL	–	binds	–
